Assay results published in paper PMC11695723, “MCM2-7 ring closure involves the Mcm5 C-terminus and triggers Mcm4 ATP hydrolysis” (Nature Communications, 2025).

Legend:
Settings in all cases: both partners purified
Mcm5 = target: T1, Mcm5 (S. cerevisiae, UniProt P29496 1-775); assay: cryo-EM structure; closed-gate OCCM (ORC-Cdc6-Cdt1-MCM2-7) on ARS1 DNA with ATPγS; focused 3D classification of the particles of ref. 13; about 10% of the particles; 6.1 Å
T1 construct: Mcm5, S. cerevisiae; subunit of the MCM2-7 hexamer; source: S. cerevisiae, galactose-induced, purified as a subunit of MCM2-7 (anti-HA beads, HA peptide, gel filtration)
T1 sequence: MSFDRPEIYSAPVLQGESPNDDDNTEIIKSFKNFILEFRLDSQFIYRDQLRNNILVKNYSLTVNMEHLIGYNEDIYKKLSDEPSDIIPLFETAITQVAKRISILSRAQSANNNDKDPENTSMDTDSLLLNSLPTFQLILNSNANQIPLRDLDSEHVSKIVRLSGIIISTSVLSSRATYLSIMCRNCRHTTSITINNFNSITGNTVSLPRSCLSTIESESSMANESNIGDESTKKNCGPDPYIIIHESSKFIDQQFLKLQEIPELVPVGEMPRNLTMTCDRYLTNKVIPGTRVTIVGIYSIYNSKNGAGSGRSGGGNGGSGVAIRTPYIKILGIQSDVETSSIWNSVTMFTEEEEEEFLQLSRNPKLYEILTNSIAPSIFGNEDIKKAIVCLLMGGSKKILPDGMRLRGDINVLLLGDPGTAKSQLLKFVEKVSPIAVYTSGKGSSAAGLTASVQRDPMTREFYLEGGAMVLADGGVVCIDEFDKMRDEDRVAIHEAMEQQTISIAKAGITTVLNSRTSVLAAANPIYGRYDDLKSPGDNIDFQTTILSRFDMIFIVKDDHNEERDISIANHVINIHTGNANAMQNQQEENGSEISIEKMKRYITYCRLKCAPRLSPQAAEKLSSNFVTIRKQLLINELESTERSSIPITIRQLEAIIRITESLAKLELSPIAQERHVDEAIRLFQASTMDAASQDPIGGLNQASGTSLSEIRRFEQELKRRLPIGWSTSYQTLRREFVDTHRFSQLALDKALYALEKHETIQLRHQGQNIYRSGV

Mcm3 (HA-tagged) = target: T2, Mcm3 (HA-tagged) (S. cerevisiae, UniProt P24279 1-971); assay: pull-down; 150 nM MCM2-7 alone in pre-RC buffer, bound to anti-HA magnetic beads by the HA-tag on Mcm3, low salt wash (pre-RC buffer), HA peptide elution, silver stain
T2 construct: Mcm3, S. cerevisiae; subunit of the MCM2-7 hexamer; bait of the anti-HA bead pulldowns; source: S. cerevisiae, galactose-induced, purified as a subunit of MCM2-7 (anti-HA beads, HA peptide, gel filtration)
T2 sequence (P24279 whole entry): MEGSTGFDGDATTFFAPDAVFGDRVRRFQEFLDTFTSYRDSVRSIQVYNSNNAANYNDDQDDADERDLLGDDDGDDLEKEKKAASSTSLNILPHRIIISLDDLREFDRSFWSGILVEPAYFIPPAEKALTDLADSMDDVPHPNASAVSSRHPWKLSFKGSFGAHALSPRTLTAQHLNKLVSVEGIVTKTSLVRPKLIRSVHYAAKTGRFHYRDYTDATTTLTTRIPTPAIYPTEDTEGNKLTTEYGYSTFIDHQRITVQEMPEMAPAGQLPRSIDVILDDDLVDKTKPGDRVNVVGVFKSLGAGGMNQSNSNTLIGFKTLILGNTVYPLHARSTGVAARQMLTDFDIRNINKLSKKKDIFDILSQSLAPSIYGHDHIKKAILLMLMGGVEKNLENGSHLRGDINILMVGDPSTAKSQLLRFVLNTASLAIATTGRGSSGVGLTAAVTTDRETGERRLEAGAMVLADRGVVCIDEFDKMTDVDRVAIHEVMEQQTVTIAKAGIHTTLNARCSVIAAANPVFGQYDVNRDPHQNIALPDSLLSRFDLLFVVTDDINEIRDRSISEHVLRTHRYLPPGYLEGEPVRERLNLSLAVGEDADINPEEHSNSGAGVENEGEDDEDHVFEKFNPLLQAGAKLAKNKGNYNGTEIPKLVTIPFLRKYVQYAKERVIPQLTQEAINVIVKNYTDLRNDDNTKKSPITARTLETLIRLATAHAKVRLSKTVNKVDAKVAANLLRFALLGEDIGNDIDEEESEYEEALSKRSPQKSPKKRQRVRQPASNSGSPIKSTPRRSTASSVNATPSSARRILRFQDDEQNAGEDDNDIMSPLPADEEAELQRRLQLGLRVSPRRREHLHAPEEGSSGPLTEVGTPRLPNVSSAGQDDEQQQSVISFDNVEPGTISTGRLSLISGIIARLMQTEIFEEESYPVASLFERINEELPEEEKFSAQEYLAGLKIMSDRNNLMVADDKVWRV

Mcm4 = target: T3, Mcm4 (S. cerevisiae, UniProt P30665 1-933); assay: cryo-EM structure; closed-gate OCCM (ORC-Cdc6-Cdt1-MCM2-7) on ARS1 DNA with ATPγS; focused 3D classification of the particles of ref. 13; about 10% of the particles; 6.1 Å
T3 construct: Mcm4, S. cerevisiae; subunit of the MCM2-7 hexamer; source: S. cerevisiae, galactose-induced, purified as a subunit of MCM2-7 (anti-HA beads, HA peptide, gel filtration)
T3 sequence: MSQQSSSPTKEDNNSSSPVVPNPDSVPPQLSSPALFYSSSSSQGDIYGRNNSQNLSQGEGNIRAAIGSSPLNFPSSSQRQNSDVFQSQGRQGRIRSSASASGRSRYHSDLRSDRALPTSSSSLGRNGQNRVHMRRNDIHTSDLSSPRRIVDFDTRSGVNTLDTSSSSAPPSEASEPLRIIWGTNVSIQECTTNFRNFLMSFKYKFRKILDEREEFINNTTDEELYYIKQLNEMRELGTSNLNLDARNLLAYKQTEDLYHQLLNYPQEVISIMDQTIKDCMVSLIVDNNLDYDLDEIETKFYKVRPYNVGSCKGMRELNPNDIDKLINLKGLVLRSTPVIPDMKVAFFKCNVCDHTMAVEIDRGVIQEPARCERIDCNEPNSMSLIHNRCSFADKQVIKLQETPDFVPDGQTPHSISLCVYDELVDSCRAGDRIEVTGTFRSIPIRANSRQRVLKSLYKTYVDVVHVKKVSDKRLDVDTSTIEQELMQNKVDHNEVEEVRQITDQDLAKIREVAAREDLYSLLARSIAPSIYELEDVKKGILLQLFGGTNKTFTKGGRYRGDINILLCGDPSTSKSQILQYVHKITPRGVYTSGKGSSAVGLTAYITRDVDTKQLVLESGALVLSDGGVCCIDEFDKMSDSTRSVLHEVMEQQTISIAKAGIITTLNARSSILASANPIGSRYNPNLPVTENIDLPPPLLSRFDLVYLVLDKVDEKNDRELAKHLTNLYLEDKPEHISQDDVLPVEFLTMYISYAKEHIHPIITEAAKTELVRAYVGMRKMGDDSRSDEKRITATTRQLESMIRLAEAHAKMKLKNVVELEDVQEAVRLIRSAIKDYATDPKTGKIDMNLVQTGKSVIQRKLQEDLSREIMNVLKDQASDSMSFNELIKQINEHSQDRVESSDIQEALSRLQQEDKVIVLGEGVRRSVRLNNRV

[1] = target: T4, Origin Recognition Complex (ORC) (UniProt P54784 1-914; P32833 1-620; P54790 1-616; P54791 1-529; P50874 1-479; P38826 …); assay: as above
T4 construct: Orc1; Orc2; Orc3; Orc4; Orc5; Orc6; in all assays ORC stood with ARS1 DNA; source: Hi-5 cells, baculovirus (Orc1,6; Orc2,5; Orc3,4), purified (ammonium sulphate, SP Sepharose, Mono Q, Superdex 200); copies: + + + + +

MCM2-7 (wild type) = target: T5, MCM2-7 (wild type) (S. cerevisiae, UniProt P29469 1-868; P24279 1-971; P30665 1-933; P29496 1-775; P53091 1-1017; P38132 …); assay: pull-down; pre-RC pulldown: 150 nM ORC, 300 nM Cdc6, 150 nM Cdt1, 150 nM MCM2-7 and 200 nM 290 bp ARS1 DNA in solution, anti-HA beads (HA-Mcm3), low salt wash, HA peptide elution
T5 construct: Mcm2, S. cerevisiae; Mcm3, S. cerevisiae; Mcm4, S. cerevisiae; Mcm5, S. cerevisiae; Mcm6, S. cerevisiae; Mcm7, S. cerevisiae; hetero-hexamer; plasmids and strains are in Supplementary Data 1; also called WT MCM2-7; copies: + + + + +
T5 sequence (P29469 whole entry, chain 1 of 3): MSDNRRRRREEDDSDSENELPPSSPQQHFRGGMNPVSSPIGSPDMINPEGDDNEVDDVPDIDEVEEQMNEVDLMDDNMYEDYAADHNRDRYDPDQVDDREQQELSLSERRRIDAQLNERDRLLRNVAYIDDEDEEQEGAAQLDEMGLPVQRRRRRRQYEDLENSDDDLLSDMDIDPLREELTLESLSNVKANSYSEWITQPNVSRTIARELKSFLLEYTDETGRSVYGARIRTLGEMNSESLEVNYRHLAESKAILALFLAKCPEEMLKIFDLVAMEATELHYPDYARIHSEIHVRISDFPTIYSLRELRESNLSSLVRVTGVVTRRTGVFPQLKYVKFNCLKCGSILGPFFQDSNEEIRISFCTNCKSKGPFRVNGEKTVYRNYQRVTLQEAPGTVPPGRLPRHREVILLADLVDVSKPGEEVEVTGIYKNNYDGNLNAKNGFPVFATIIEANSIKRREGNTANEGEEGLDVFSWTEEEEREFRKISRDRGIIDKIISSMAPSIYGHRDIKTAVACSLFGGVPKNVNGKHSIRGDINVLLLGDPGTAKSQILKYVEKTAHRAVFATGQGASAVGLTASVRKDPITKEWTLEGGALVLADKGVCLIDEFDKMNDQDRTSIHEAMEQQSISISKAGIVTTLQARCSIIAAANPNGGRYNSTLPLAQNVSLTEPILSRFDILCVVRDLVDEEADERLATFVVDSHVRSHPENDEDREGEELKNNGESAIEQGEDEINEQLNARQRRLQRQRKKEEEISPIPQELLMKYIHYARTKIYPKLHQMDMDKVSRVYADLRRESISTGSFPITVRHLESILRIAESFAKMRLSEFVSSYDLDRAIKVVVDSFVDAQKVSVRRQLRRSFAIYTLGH
T5 sequence (P24279 whole entry, chain 2 of 3): as the sequence (P24279 whole entry) above
T5 sequence (P53091 whole entry, chain 5 of 3): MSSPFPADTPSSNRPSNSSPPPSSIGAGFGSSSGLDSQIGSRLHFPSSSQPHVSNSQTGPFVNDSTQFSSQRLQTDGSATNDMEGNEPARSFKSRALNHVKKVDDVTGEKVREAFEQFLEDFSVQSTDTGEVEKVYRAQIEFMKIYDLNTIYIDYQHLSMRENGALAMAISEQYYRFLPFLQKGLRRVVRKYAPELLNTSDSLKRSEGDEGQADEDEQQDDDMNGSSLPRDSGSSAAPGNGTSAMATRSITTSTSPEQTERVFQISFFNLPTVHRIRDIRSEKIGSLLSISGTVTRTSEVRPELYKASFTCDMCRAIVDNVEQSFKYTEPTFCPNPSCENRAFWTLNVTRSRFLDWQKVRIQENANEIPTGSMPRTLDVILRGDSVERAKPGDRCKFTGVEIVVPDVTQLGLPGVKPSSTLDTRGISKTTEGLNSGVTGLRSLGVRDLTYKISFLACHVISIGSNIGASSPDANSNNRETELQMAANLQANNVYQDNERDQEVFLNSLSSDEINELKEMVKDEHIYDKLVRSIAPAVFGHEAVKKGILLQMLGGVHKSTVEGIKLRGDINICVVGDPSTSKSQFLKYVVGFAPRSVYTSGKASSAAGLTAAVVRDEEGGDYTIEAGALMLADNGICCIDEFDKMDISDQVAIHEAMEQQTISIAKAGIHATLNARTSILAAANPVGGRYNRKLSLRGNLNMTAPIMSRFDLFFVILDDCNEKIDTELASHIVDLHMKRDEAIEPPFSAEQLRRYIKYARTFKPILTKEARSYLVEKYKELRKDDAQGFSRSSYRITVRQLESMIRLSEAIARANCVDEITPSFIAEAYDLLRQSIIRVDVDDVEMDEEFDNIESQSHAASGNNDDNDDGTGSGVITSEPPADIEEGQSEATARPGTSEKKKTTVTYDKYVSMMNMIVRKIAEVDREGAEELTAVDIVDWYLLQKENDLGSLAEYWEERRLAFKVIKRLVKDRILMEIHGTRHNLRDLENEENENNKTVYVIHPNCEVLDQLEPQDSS

MCM2-7-ΔC5 = target: T6, MCM2-7-ΔC5 (S. cerevisiae, UniProt P29469 1-868; P24279 1-971; P30665 1-933; P29496 1-692; P53091 1-1017; P38132 …); assay: as above
T6 construct: Mcm2, S. cerevisiae; Mcm3, S. cerevisiae; Mcm4, S. cerevisiae; Mcm5, S. cerevisiae, deletion of residues 693-775 (C-terminal extension C5: linker and WHD); Mcm6, S. cerevisiae; Mcm7, S. cerevisiae; also called mcm5 (Δ693-775); copies: + + + + +
T6 sequence (P29469 whole entry, stated change not applied, chain 1 of 3, the tested form may be a part): as the sequence (P29469 whole entry, chain 1 of 3) above
T6 sequence (P24279 whole entry, stated change not applied, chain 2 of 3, the tested form may be a part): as the sequence (P24279 whole entry) above
T6 sequence (P53091 whole entry, stated change not applied, chain 5 of 3, the tested form may be a part): as the sequence (P53091 whole entry, chain 5 of 3) above

B1: Orc3 (natural protein)
chain: MSDLNQSKKMNVSEFADAQRSHYTVYPSLPQSNKNDKHIPFVKLLSGKESEVNVEKRWELYHQLHSHFHDQVDHIIDNIEADLKAEISDLLYSETTQKRRCFNTIFLLGSDSTTKIELKDESSRYNVLIELTPKESPNVRMMLRRSMYKLYSAADAEEHPTIKYEDINDEDGDFTEQNNDVSYDLSLVENFKRLFGKDLAMVFNFKDVDSINFNTLDNFIILLKSAFKYDHVKISLIFNINTNLSNIEKNLRQSTIRLLKRNYHKLDVSSNKGFKYGNQIFQSFLDTVDGKLNLSDRFVEFILSKMANNTNHNLQLLTKMLDYSLMSYFFQNAFSVFIDPVNVDFLNDDYLKILSRCPTFMFFVEGLIKQHAPADEILSLLTNKNRGLEEFFVEFLVRENPINGHAKFVARFLEEELNITNFNLIELYHNLLIGKLDSYLDRWSACKEYKDRLHFEPIDTIFQELFTLDNRSGLLTQSIFPSYKSNIEDNLLSWEQVLPSLDKENYDTLSGDLDKIMAPVLGQLFKLYREANMTINIYDFYIAFRETLPKEEILNFIRKDPSNTKLLELAETPDAFDKVALILFMQAIFAFENMGLIKFQSTKSYDLVEKCVWRGI
notes: Orc3; subunit of ORC; source: Hi-5 cells, baculovirus, purified as a subunit of ORC
Does B1 bind (Mcm5)?
Result: binds

B2: Mcm7 (natural protein, S. cerevisiae)
chain: MSAALPSIQLPVDYNNLFNEITDFLVTFKQDTLSSDATRNENEDENLDAENIEQHLLEKGPKYMAMLQKVANRELNSVIIDLDDILQYQNEKFLQGTQADDLVSAIQQNANHFTELFCRAIDNNMPLPTKEIDYKDDVLDVILNQRRLRNERMLSDRTNEIRSENLMDTTMDPPSSMNDALREVVEDETELFPPNLTRRYFLYFKPLSQNCARRYRKKAISSKPLSVRQIKGDFLGQLITVRGIITRVSDVKPAVEVIAYTCDQCGYEVFQEVNSRTFTPLSECTSEECSQNQTKGQLFMSTRASKFSAFQECKIQELSQQVPVGHIPRSLNIHVNGTLVRSLSPGDIVDVTGIFLPAPYTGFKALKAGLLTETYLEAQFVRQHKKKFASFSLTSDVEERVMELITSGDVYNRLAKSIAPEIYGNLDVKKALLLLLVGGVDKRVGDGMKIRGDINVCLMGDPGVAKSQLLKAICKISPRGVYTTGKGSSGVGLTAAVMKDPVTDEMILEGGALVLADNGICCIDEFDKMDESDRTAIHEVMEQQTISISKAGINTTLNARTSILAAANPLYGRYNPRLSPLDNINLPAALLSRFDILFLMLDIPSRDDDEKLAEHVTYVHMHNKQPDLDFTPVEPSKMREYIAYAKTKRPVMSEAVNDYVVQAYIRLRQDSKREMDSKFSFGQATPRTLLGIIRLSQALAKLRLADMVDIDDVEEALRLVRVSKESLYQETNKSKEDESPTTKIFTIIKKMLQETGKNTLSYENIVKTVRLRGFTMLQLSNCIQEYSYLNVWHLINEGNTLKFVDDGTMDTDQEDSLVSTPKLAPQTTASANVSAQDSDIDLQDA
notes: Mcm7, S. cerevisiae; subunit of the MCM2-7 hexamer; source: S. cerevisiae, galactose-induced, purified as a subunit of MCM2-7 (anti-HA beads, HA peptide, gel filtration)
Does B2 bind (Mcm3 (HA-tagged))?
Result: binds

Does B2 bind (Mcm4)?
Result: binds

B3: Mcm5 lacking its C-terminus (subunit of MCM2-7-ΔC5) (domain or fragment, S. cerevisiae, UniProt P29496 1-692, looked up)
chain: MSFDRPEIYSAPVLQGESPNDDDNTEIIKSFKNFILEFRLDSQFIYRDQLRNNILVKNYSLTVNMEHLIGYNEDIYKKLSDEPSDIIPLFETAITQVAKRISILSRAQSANNNDKDPENTSMDTDSLLLNSLPTFQLILNSNANQIPLRDLDSEHVSKIVRLSGIIISTSVLSSRATYLSIMCRNCRHTTSITINNFNSITGNTVSLPRSCLSTIESESSMANESNIGDESTKKNCGPDPYIIIHESSKFIDQQFLKLQEIPELVPVGEMPRNLTMTCDRYLTNKVIPGTRVTIVGIYSIYNSKNGAGSGRSGGGNGGSGVAIRTPYIKILGIQSDVETSSIWNSVTMFTEEEEEEFLQLSRNPKLYEILTNSIAPSIFGNEDIKKAIVCLLMGGSKKILPDGMRLRGDINVLLLGDPGTAKSQLLKFVEKVSPIAVYTSGKGSSAAGLTASVQRDPMTREFYLEGGAMVLADGGVVCIDEFDKMRDEDRVAIHEAMEQQTISIAKAGITTVLNSRTSVLAAANPIYGRYDDLKSPGDNIDFQTTILSRFDMIFIVKDDHNEERDISIANHVINIHTGNANAMQNQQEENGSEISIEKMKRYITYCRLKCAPRLSPQAAEKLSSNFVTIRKQLLINELESTERSSIPITIRQLEAIIRITESLAKLELSPIAQERHVDEAIRLFQASTMDAA
notes: Mcm5, S. cerevisiae, deletion of residues 693-775 (C5); also called mcm5ΔC5; mcm5 (Δ693-775); source: S. cerevisiae, galactose-induced, purified as a subunit of MCM2-7-ΔC5 (anti-HA beads, HA peptide, gel filtration)
Does B3 bind (Mcm3 (HA-tagged))?
Result: binds

B4: Cdc6 (natural protein)
chain: MSAIPITPTKRIRRNLFDDAPATPPRPLKRKKLQFTDVTPESSPEKLQFGSQSIFLRTKALLQKSSELVNLNSSDGALPARTAEYEQVMNFLAKAISEHRSDSLYITGPPGTGKTAQLDMIIRQKFQSLPLSLSTPRSKDVLRHTNPNLQNLSWFELPDGRLESVAVTSINCISLGEPSSIFQKIFDSFQDLNGPTLQIKNMQHLQKFLEPYHKKTTFVVVLDEMDRLLHANTSETQSVRTILELFLLAKLPTVSFVLIGMANSLDMKDRFLSRLNLDRGLLPQTIVFQPYTAEQMYEIVIQKMSSLPTIIFQPMAIKFAAKKCAGNTGDLRKLFDVLRGSIEIYELEKRFLLSPTRGSLNSAQVPLTPTTSPVKKSYPEPQGKIGLNYIAKVFSKFVNNNSTRTRIAKLNIQQKLILCTIIQSLKLNSDATIDESFDHYIKAITKTDTLAPLQRNEFLEICTILETCGLVSIKKTKCKGKTKRFVDKIDVDLDMREFYDEMTKISILKPFLH
notes: Cdc6; also called WT Cdc6; source: E. coli BL21 codon-plus, purified (glutathione-agarose, PreScission Protease, hydroxyapatite)
Does B4 bind [1]?
Result: binds

Does B4 bind (MCM2-7 (wild type))?
Result: binds

Does B4 bind (MCM2-7-ΔC5)?
Result: binds
